{
  "source": "patent US20190218553",
  "about": "“VON WILLEBRAND FACTOR (VWF)-TARGETING AGENTS AND METHODS OF USING THE SAME” (DUKE UNIVERSITY, published 2019)",
  "binders": {"B1": {"name": "VWF9.14 full length (ssRNA)", "RNA": "GGGAGGACGAUGCGGUGGACGAACUGCCCUCAGCUACUUUCAUGUUGCUGACGCACAGACGACUCGCUGAGGAUCCGAGA", "modifications": "2'-F C and U; 2'-OH A and G"}, "B2": {"name": "T10 (ssRNA)", "RNA": "GGGAGGUGGACGAACUGCCCUCAGCUACUUUCAUGUUGCUGACGCACAGACGACUCGCUG", "modifications": "2'-F C and U; 2'-OH A and G; 3' idT"}, "B3": {"name": "T79 vrt7 (DTRI-031) (ssRNA)", "RNA": "ACGAACUGCCCUCGAUCGACGCACAGACGUUUUUU", "modifications": "mAmCmGmAmAmCmUmGfCfCfCmUmCmGmAmUmCmGmAfCfGfCmAmCmAmGmAmCmGmUmUmUmUmUmU-idT"}, "B4": {"name": "T37 (ssRNA)", "RNA": "ACGAACUGCCCUCAGCUACUUAUGUUGCUGACGCACAGACGU", "modifications": "2'-F C and U; 2'-OH A and G; 3' idT"}, "B5": {"name": "T39 (ssRNA)", "RNA": "ACGAACUGCCCUCAGACUUUCAUGUCUGACGCACAGACGU", "modifications": "2'-F C and U; 2'-OH A and G; 3' idT"}, "B6": {"name": "T74 (ssRNA)", "RNA": "CCCACGAACUGCCCUCGAUCGACGCACAGACGU", "modifications": "2'-F C and U; 2'-OH A and G; 3' idT"}, "B7": {"name": "T79 (ssRNA)", "RNA": "B3 RNA", "modifications": "2'-F C and U; 2'-OH A and G; 3' idT"}, "B8": {"name": "T81 (ssRNA)", "RNA": "ACGAACUGCCCUCGAUCGACGCACAGACGUACACA", "modifications": "2'-F C and U; 2'-OH A and G; 3' idT"}, "B9": {"name": "T25 vrt3 (ssRNA)", "RNA": "ACGAACUGCCCUCAGCUACUUUCAUGUUGCUGACGCACAGACGU", "modifications": "mAfCmGrArAfCfUrGfCfCfCfUfCrArGfCfUrAfCfUfUfUfCrAfUrGfUfUrGfCfUrGrAfCrGfCrAfCrArGrAfCmGfU-idT (m=2'-OMe, f=2'-F, r=2'-OH)"}, "B10": {"name": "T25 vrt4 (ssRNA)", "RNA": "B9 RNA", "modifications": "mAmCmGrArAfCfUrGfCfCfCfUfCrArGfCfUrAfCfUfUfUfCrAfUrGfUfUrGfCfUrGrAfCrGfCrAfCrArGrAmCmGmU-idT"}, "B11": {"name": "T22 (ssRNA)", "RNA": "GGACGAACUGCCCUCAGCUACUUUCAUGUUGCUGACGCACAGACGACUCGCUG", "modifications": "2'-F C and U; 2'-OH A and G"}, "B12": {"name": "T25 vrt24 (ssRNA)", "RNA": "B9 RNA", "modifications": "rAfCrGrArAfCfUrGfCfCfCfUfCrArGfCfUrAfCfUfUfUfCrAfUrGfUfUrGfCfUrGrAmCrGfCrAfCrArGrAfCrGfU-idT"}, "B13": {"name": "T59 vrt4 (ssRNA)", "RNA": "ACGAACUGCCCUCGAUCGACGCACAGACGU", "modifications": "mAfCmGmAmAmCfUmGfCfCfCfUmCmGmAmUmCmGmAfCmGfCmAmCmAmGmAfCmGfU-idT"}, "B14": {"name": "T59 vrt15 (ssRNA)", "RNA": "B13 RNA", "modifications": "mAmCmGmAmAmCfUmGfCfCfCmUmCmGmAmUmCmGmAfCmGfCrAmCmAmGmAmCmGfU-idT"}},
  "key": {"[1]": {"biological_target": "T1, von Willebrand factor (VWF) (Homo sapiens, UniProt P04275 P04275:764-2813)", "assay": "filter; Bmax 70%; 20 mM HEPES pH 7.4, 150 mM NaCl, 2 mM CaCl2, 0.01% BSA, 37 C", "conditions": "tags: factor VIII free, Haematologic Technologies Inc; label: 5'-32P", "experimental": "(§1) Affinity constants (Kd values) were determined using double-filter nitrocellulose filter binding assays (Rusconi et al, Thromb. Haemost. $4:841-848 (2000)). All binding studies were performed in binding buffer F (20 mM HEPES, pH 7.4, 150 mM NaCl, 2 mM CaCl₂, and 0.01% BSA) at 37° C. Human purified VWF (factor VIII free) was purchased from Haematologic Technologies Inc. (Essex Junction, Vt.) and used in the double-filter nitrocellulose filter binding assay to determine the Kd of the aptamers. Briefly, RNA were end-labeled at the 5′ end with T4 polynucleotide kinase (New England Biolabs, Beverly, Mass.) and [γ³²P] ATP (Amersham Pharmacia Biotech, Piscataway, N.J.) (Fitzwater and Polisky, Methods Enzymol. 267:275-301 (1996)). End-labeled RNA was diluted in binding buffer F, heat denatured at 65° C. for 5 minutes, and subsequently equilibrated at 37° C. Direct binding was performed by incubating trace ³²P-RNA with varying concentrations of VWF protein in binding buffer F at 37° C. for 5 min. The fraction of the nucleic acid-protein complex which bound to the nitrocellulose membrane was quantified with a phosphorimager (Molecular Dynamics, Sunnyvale, Calif.). Non-specific binding of the radiolabeled nucleic acid was subtracted out of the binding such that only specific binding remained (Wong and Lohman, Proc. Natl. Acad. Sci. USA 90:5428-5432 (1993))."}, "[2]": {"biological_target": "T1, von Willebrand factor (VWF)", "assay": "filter; Bmax 51%; 2 mM CaCl2, 37 C", "conditions": "tags: factor VIII free, Haematologic Technologies Inc; label: 5'-32P", "experimental": "as §1"}, "[3]": {"biological_target": "T1, von Willebrand factor (VWF)", "assay": "filter; Bmax 56%; 2 mM CaCl2, 37 C", "conditions": "tags: factor VIII free, Haematologic Technologies Inc", "experimental": "as §1"}, "[4]": {"biological_target": "von Willebrand factor (VWF) in whole blood (Homo sapiens, UniProt P04275 P04275:764-2813)", "assay": "inhibition; platelet adhesion to collagen under high shear, human whole blood; text gives 72.6", "conditions": "protein: extract; tags: endogenous, hirudin-anticoagulated human whole blood", "experimental": "The Venaflux™ microfluidics system (Cellix, Dublin, Ireland) measures platelet adhesion on a collagen surface. Human blood was collected into hirudin tubes from healthy volunteers by vena puncture. An aliquot containing 300 μl of whole blood treated with aptamer or platelet-binding buffer alone was flowed through collagen-coated micro-channels at 60 dynes for 3 minutes. Channels were then rinsed with saline for 3 minutes to wash away RBC and unbound platelets. Venaflux imaging software and Image Pro Plus were used to image bound platelets and calculate covered surface area. Aptamer was incubated at 95° C. for 3 minutes, placed on ice for 3 minutes, then incubated for 10 minutes at room temperature. After cooling, aptamer was kept on ice until use. Total surface area covered by bound platelets in treated blood was expressed as a percentage of total coverage in negative control blood. Statistical significance was determined by analysis of variance; IC₅₀ of the aptamer was calculated using a fitted linear regression curve.\nTo evaluate the inhibitory effect of the aptamer on platelet adhesion, human whole blood samples were treated with aptamer starting at 900 nmol/L with 2-fold dilutions to 14 nmol/L and tested by measuring platelet adhesion under high-shear stress. The aptamer prevented platelet adhesion to the collagen surface in a dose-dependent manner (FIG. 20-22)."}, "[5]": {"biological_target": "T1, von Willebrand factor (VWF)", "assay": "filter; Bmax 68%; 2 mM CaCl2, 37 C", "conditions": "tags: factor VIII free, Haematologic Technologies Inc; label: 5'-32P", "experimental": "as §1"}, "[6]": {"biological_target": "T1, von Willebrand factor (VWF)", "assay": "filter; Bmax 50%; 2 mM CaCl2, 37 C", "conditions": "tags: factor VIII free, Haematologic Technologies Inc; label: 5'-32P", "experimental": "as §1"}, "[7]": {"biological_target": "T1, von Willebrand factor (VWF)", "assay": "filter; Bmax 37%; 2 mM CaCl2, 37 C", "conditions": "tags: factor VIII free, Haematologic Technologies Inc; label: 5'-32P", "experimental": "as §1"}, "[8]": {"biological_target": "T1, von Willebrand factor (VWF)", "assay": "filter; Bmax 64%; 2 mM CaCl2, 37 C", "conditions": "tags: factor VIII free, Haematologic Technologies Inc; label: 5'-32P", "experimental": "as §1"}, "[9]": {"biological_target": "T1, von Willebrand factor (VWF)", "assay": "filter; Bmax 63%; 2 mM CaCl2, 37 C", "conditions": "tags: factor VIII free, Haematologic Technologies Inc; label: 5'-32P", "experimental": "as §1"}, "[10]": {"biological_target": "T1, von Willebrand factor (VWF)", "assay": "filter; Bmax 38%; 2 mM CaCl2, 37 C", "conditions": "tags: factor VIII free, Haematologic Technologies Inc; label: 5'-32P", "experimental": "as §1"}, "[11]": {"biological_target": "T1, von Willebrand factor (VWF)", "assay": "filter; Bmax 33%; 2 mM CaCl2, 37 C", "conditions": "tags: factor VIII free, Haematologic Technologies Inc; label: 5'-32P", "experimental": "as §1"}, "[12]": {"biological_target": "T1, von Willebrand factor (VWF)", "assay": "filter; Bmax 43%; 2 mM CaCl2, 37 C", "conditions": "tags: factor VIII free, Haematologic Technologies Inc; label: 5'-32P", "experimental": "as §1"}, "[13]": {"biological_target": "T1, von Willebrand factor (VWF)", "assay": "filter; Bmax 25%; 2 mM CaCl2, 37 C", "conditions": "tags: factor VIII free, Haematologic Technologies Inc; label: 5'-32P", "experimental": "as §1"}, "[14]": {"biological_target": "T1, von Willebrand factor (VWF)", "assay": "filter; Bmax 53%; 2 mM CaCl2, 37 C", "conditions": "tags: factor VIII free, Haematologic Technologies Inc; label: 5'-32P", "experimental": "as §1"}, "[15]": {"biological_target": "T1, von Willebrand factor (VWF)", "assay": "filter; Bmax 65%; 2 mM CaCl2, 37 C", "conditions": "tags: factor VIII free, Haematologic Technologies Inc; label: 5'-32P", "experimental": "as §1"}},
  "data": [
    {"binder": "B1", "values": [
      {"measurement": "Kd", "setting": "[1]", "value": 12, "unit": "nM"}
    ]},
    {"binder": "B2", "values": [
      {"measurement": "Kd", "setting": "[2]", "value": 18.4, "unit": "nM"}
    ]},
    {"binder": "B3", "values": [
      {"measurement": "Kd", "setting": "[3]", "value": 11.2, "unit": "nM"},
      {"measurement": "IC50", "setting": "[4]", "value": 72.5, "unit": "nM"}
    ]},
    {"binder": "B4", "values": [
      {"measurement": "Kd", "setting": "[5]", "value": 10, "unit": "nM"}
    ]},
    {"binder": "B5", "values": [
      {"measurement": "Kd", "setting": "[6]", "value": 11, "unit": "nM"}
    ]},
    {"binder": "B6", "values": [
      {"measurement": "Kd", "setting": "[7]", "value": 23, "unit": "nM"}
    ]},
    {"binder": "B7", "values": [
      {"measurement": "Kd", "setting": "[8]", "value": 1.6, "unit": "nM"}
    ]},
    {"binder": "B8", "values": [
      {"measurement": "Kd", "setting": "[9]", "value": 4.2, "unit": "nM"}
    ]},
    {"binder": "B9", "values": [
      {"measurement": "Kd", "setting": "[10]", "value": 9.2, "unit": "nM"}
    ]},
    {"binder": "B10", "values": [
      {"measurement": "Kd", "setting": "[11]", "value": 5.9, "unit": "nM"}
    ]},
    {"binder": "B11", "values": [
      {"measurement": "Kd", "setting": "[12]", "value": 28, "unit": "nM"}
    ]},
    {"binder": "B12", "values": [
      {"measurement": "Kd", "setting": "[13]", "value": 55, "unit": "nM"}
    ]},
    {"binder": "B13", "values": [
      {"measurement": "Kd", "setting": "[14]", "value": 364, "unit": "nM"}
    ]},
    {"binder": "B14", "values": [
      {"measurement": "Kd", "setting": "[15]", "value": 32.5, "unit": "nM"}
    ]}
  ]
}
